Source: PMC11417369, “DNA sequence and chromatin differentiate sequence-specific transcription factor binding in the human malaria parasite Plasmodium falciparum”

T1: AP2-LT D1 (Plasmodium falciparum, UniProt Q8IAM1 2520-2577)
T1 sequence: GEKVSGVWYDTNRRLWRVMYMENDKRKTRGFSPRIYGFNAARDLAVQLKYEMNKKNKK


Biological target: T1, AP2-LT D1
Assay: gcPBM; about 25 ug protein; PBS, 1% milk, 0.2 mg/ml BSA, salmon testes DNA, 0.03% Triton X-100
Conditions: tags: N-terminal GST (pGEX-4T-1), kept; label: surface-attached array probe

Binder	binding signal
CACACA_site453 (dsDNA) DNA 1: CAAAGACACAAACACACACACACATACATACATACA DNA 2: TGTATGTATGTATGTGTGTGTGTGTTTGTGTCTTTG	10.6 ln median PBM intensity, better of two orientations
CACACA_site2666 (dsDNA) DNA 1: AAAAAACACAGACACACACACATATACATACATACA DNA 2: TGTATGTATGTATATGTGTGTGTGTCTGTGTTTTTT	10.6 ln median PBM intensity, better of two orientations
CACACA_site4354 (dsDNA) DNA 1: CACAGACACGGACACACACACACACCCATATATATA DNA 2: TATATATATGGGTGTGTGTGTGTGTCCGTGTCTGTG	10.3 ln median PBM intensity, better of two orientations
CACACA_site8248 (dsDNA) DNA 1: TGAACTCACGAGCACACACACACATATATATATATA DNA 2: TATATATATATATGTGTGTGTGTGCTCGTGAGTTCA	10.5 ln median PBM intensity, better of two orientations
CACACA_site2920 (dsDNA) DNA 1: CATACATACAGACACACACACATATATATATATATA DNA 2: TATATATATATATATGTGTGTGTGTCTGTATGTATG	10.4 ln median PBM intensity, better of two orientations
CACACA_site2248 (dsDNA) DNA 1: TATACATAGAAACACACACACATATATATATATATA DNA 2: TATATATATATATATGTGTGTGTGTTTCTATGTATA	10.2 ln median PBM intensity, better of two orientations
CACACA_site773 (dsDNA) DNA 1: TATATATAGAAACACACACACATATATATATATATA DNA 2: TATATATATATATATGTGTGTGTGTTTCTATATATA	10.3 ln median PBM intensity, better of two orientations
CACACA_site363 (dsDNA) DNA 1: CACACCCACAGACACACACACACATATATATATATA DNA 2: TATATATATATATGTGTGTGTGTGTCTGTGGGTGTG	10.3 ln median PBM intensity, better of two orientations
CACACA_site8452 (dsDNA) DNA 1: AAAAAAAAAAAACATACACACACATATATATATATA DNA 2: TATATATATATATGTGTGTGTATGTTTTTTTTTTTT	10.3 ln median PBM intensity, better of two orientations
CACACA_site4314 (dsDNA) DNA 1: AATAAATAAAGAAGTACACACATATATATATATATA DNA 2: TATATATATATATATGTGTGTACTTCTTTATTTATT	10.3 ln median PBM intensity, better of two orientations
CACACA_site7866 (dsDNA) DNA 1: GGATATAACAGACACACACACACATATAAATATATT DNA 2: AATATATTTATATGTGTGTGTGTGTCTGTTATATCC	10.4 ln median PBM intensity, better of two orientations
CACACA_site6255 (dsDNA) DNA 1: TTTATTAATAGACACACACACACACGCAAAATAAAA DNA 2: TTTTATTTTGCGTGTGTGTGTGTGTCTATTAATAAA	10.4 ln median PBM intensity, better of two orientations
CACACA_site4674 (dsDNA) DNA 1: CATATAAAAGGACACACACACACATATATATATATA DNA 2: TATATATATATATGTGTGTGTGTGTCCTTTTATATG	10.6 ln median PBM intensity, better of two orientations
CACACA_site4437 (dsDNA) DNA 1: CATATACACGAACACACACACATATATATATATATA DNA 2: TATATATATATATATGTGTGTGTGTTCGTGTATATG	10.4 ln median PBM intensity, better of two orientations
CACACA_site905 (dsDNA) DNA 1: AAAAAGGAGAAACACACACACACACCCATATATATA DNA 2: TATATATATGGGTGTGTGTGTGTGTTTCTCCTTTTT	10.2 ln median PBM intensity, better of two orientations
CACACA_site493 (dsDNA) DNA 1: AACATACAGAAACACACACACACACCCACACCCACA DNA 2: TGTGGGTGTGGGTGTGTGTGTGTGTTTCTGTATGTT	10.6 ln median PBM intensity, better of two orientations

Binder	binding signal
CACACA_site5873 (dsDNA) DNA 1: AATAACCACGGACACACACACATATATATATATATA DNA 2: TATATATATATATATGTGTGTGTGTCCGTGGTTATT	10.5 ln median PBM intensity, better of two orientations
CACACA_site5809 (dsDNA) DNA 1: AACACCCATGGACACACACACATATATATATATATA DNA 2: TATATATATATATATGTGTGTGTGTCCATGGGTGTT	10.5 ln median PBM intensity, better of two orientations
CACACA_site8097 (dsDNA) DNA 1: CATACACCCCAACACACACACACACCCATATATAAT DNA 2: ATTATATATGGGTGTGTGTGTGTGTTGGGGTGTATG	10.6 ln median PBM intensity, better of two orientations
CACACA_site2267 (dsDNA) DNA 1: AATATAAATAAAAACACACACACACCCATATATATA DNA 2: TATATATATGGGTGTGTGTGTGTTTTTATTTATATT	10.6 ln median PBM intensity, better of two orientations
CACACA_site5031 (dsDNA) DNA 1: AGTATACTCGGACACACACACACATATATATATATA DNA 2: TATATATATATATGTGTGTGTGTGTCCGAGTATACT	10.6 ln median PBM intensity, better of two orientations
CACACA_site6447 (dsDNA) DNA 1: AATACACGCAGACACACACACACACGCACATATATA DNA 2: TATATATGTGCGTGTGTGTGTGTGTCTGCGTGTATT	10.3 ln median PBM intensity, better of two orientations
CACACA_site268 (dsDNA) DNA 1: AATATAAACCCAAACACACACATATATATATATATA DNA 2: TATATATATATATATGTGTGTGTTTGGGTTTATATT	10.3 ln median PBM intensity, better of two orientations
CACACA_site1992 (dsDNA) DNA 1: TGGGTAAACAAACACACACACATATATATATATATA DNA 2: TATATATATATATATGTGTGTGTGTTTGTTTACCCA	10.5 ln median PBM intensity, better of two orientations
CACACA_site517 (dsDNA) DNA 1: AATTAACAAAAACACACACACACACCCACAAAAAAA DNA 2: TTTTTTTGTGGGTGTGTGTGTGTGTTTTTGTTAATT	10.3 ln median PBM intensity, better of two orientations
CACACA_site7106 (dsDNA) DNA 1: AAAAAACACGCGCACACACACACACGCGCCCACATA DNA 2: TATGTGGGCGCGTGTGTGTGTGTGCGCGTGTTTTTT	10.5 ln median PBM intensity, better of two orientations
CACACA_site499 (dsDNA) DNA 1: CACCCACCCAGACACACACACACAAAAAAAAAAAGA DNA 2: TCTTTTTTTTTTTGTGTGTGTGTGTCTGGGTGGGTG	10.6 ln median PBM intensity, better of two orientations
CACACA_site1020 (dsDNA) DNA 1: AACAGACGAAGACACACACACATATATATATATATA DNA 2: TATATATATATATATGTGTGTGTGTCTTCGTCTGTT	10.4 ln median PBM intensity, better of two orientations
CACACA_site6473 (dsDNA) DNA 1: AAAAAAAAAAGACACACACACACACTAATACATACA DNA 2: TGTATGTATTAGTGTGTGTGTGTGTCTTTTTTTTTT	10.6 ln median PBM intensity, better of two orientations
CACACA_site9255 (dsDNA) DNA 1: AAAGAAGGTAAACACACACACACACCGACAAAAAAA DNA 2: TTTTTTTGTCGGTGTGTGTGTGTGTTTACCTTCTTT	10.6 ln median PBM intensity, better of two orientations
CACACA_site481 (dsDNA) DNA 1: ATAATCCTGAAACACACACACACACCCATAAATAAA DNA 2: TTTATTTATGGGTGTGTGTGTGTGTTTCAGGATTAT	10.4 ln median PBM intensity, better of two orientations
CACACA_site706 (dsDNA) DNA 1: AAAAAAAAAAAACACACACACACAAATACATACACA DNA 2: TGTGTATGTATTTGTGTGTGTGTGTTTTTTTTTTTT	10.4 ln median PBM intensity, better of two orientations
